Reference: patent US20240150440A1 (LUMEN BIOSCIENCE, published 2024)

B1: PP1108 MBP-5HVZ-PAPA-RN-23-H6 (VHH)
VHH: QVQLVESGGGLVQPGGSLRLSCAASGGEKSISAAHWYRQAPGKEREFVAAITAASTTSYADSVKGRFTISRDNAKNTVYLQMNSLKPEDTAVYYCTAVLYDSYDYWGQGTQVTVSS
notes: Form: Dimer
B2: PP788 (VHH, not shown: large carriers; small tags and cut ends)
VHH: QVQLVESGGGLVQPGGSLRLSCAASGSIESINAIHWFRQAPGKAREEVAAITENDVDYYADSVKGRFTISRDNAKNTVYLQMNSLKPEDTAVYYCASLSSGYQYVGFRYWGQGTQVTVSS
B3: PP1115 MBP-5HVZ-PAPA-RN-31-H6 (VHH)
VHH: QVQLVESGGGLVQPGGSLRLSCAASGSTGSDYAMHWFRQAPGKDREWVAGISSYGSDSYGDSVKGRFTISRDNAKNTVYLQMNSLKPEDTAVYYCAALQASAGAGYYYDYWGQGTQVTVSS
notes: Form: Dimer
B4: PP911 MBP-5HVZ-S2b-F7-H6 (VHH)
VHH: QVQLVESGGGLVQPGGSLRLSCAASGSTLSNNAMHWFRQAPGKAREFVAAIGSSDSTDYKDSVKGRFTISRDNAKNTVYLQMNSLKPEDTAVYYCTALLDSGPGEYNYWGQGTQVTVSS
notes: Form: Dimer
B5: PP916 MBP-5HVZ-S3b-A8-H6 (VHH)
VHH: QVQLVESGGGLVQPGGSLRLSCAASGSIISRVKVHWFRQAPGKSREWVAGIDSGTASYYSDSVKGRFTISRDNAKNTVYLQMNSLKPEDTAVYYCAAENRGYGVDWGQGTQVTVSS
notes: Form: Dimer
B6: PP907 MBP-5HVZ-S1b-E11-H6 (VHH)
VHH: QVQLVESGGGLVQPGGSLRLSCAASGSYASIASMHWFRQAPGKEREFVAGVTSGGSTNYGDSVKGRFTISRDNAKNTVYLQMNSLKPEDTAVYYCNALAGANYESQWEEYNYWGQGTQVTVSS
notes: Form: Dimer
B7: PP1096 MBP-5HVZ-PAPA-RN-3-H6 (VHH)
VHH: QVQLVESGGGLVQPGGSLRLSCAASGFEFTYRAVHWFRQAPGKGREWVAGVVSGGSTYYADSVKGRFTISRDNAKNTVYLQMNSLKPEDTAVYYCNAGPQAEEDTYDYWGQGTQVTVSS
B8: PP904 MBP-5HVZ-R5b-C5-H6 (VHH)
VHH: QVQLVESGGGLVQPGGSLRLSCAASGSPFKTQTVHWFRQAPGKGREWVASITSGSGTQYMDSVKGRFTISRDNAKNTVYLQMNSLKPEDTAVYYCAAANDGYGVDWGQGTQVTVSS
notes: Form: Dimer
B9: PP913 MBP-5HVZ-S3a-C5-H6 (VHH)
VHH: QVQLVESGGGLVQPGGSLRLSCAASGSIKNTNAMHWFRQAPGKDREWVAGITSGGNSNYGDSVKGRFTISRDNAKNTVYLQMNSLKPEDTAVYYCAAFGYRYDQDYTYDYWGQGTQVTVSS
notes: Form: Dimer
B10: PP1114 MBP-5HVZ-PAPA-RN-30-H6 (VHH)
VHH: QVQLVESGGGLVQPGGSLRLSCAASGIPASYLNMHWFRQAPGKQREWVAGAGGTNSNYYQDSVKGRFTISRDNAKNTVYLQMNSLKPEDTAVYYCAALDGAESYDYVYPVWGQGTQVTVSS
notes: Form: Dimer
B11: PP902 MBP-5HVZ-R1e-D4-H6 (VHH)
VHH: QVQLVESGGGLVQPGGSLRLSCAASGSIREINAMHWVRQAPGKGRELVASIDSGSLDYYADSVKGRFTISRDNAKNTVYLQMNSLKPEDTAVYYCAASRSGDYRYWGQGTQVTVSS
notes: Form: Dimer
B12: PP914 MBP-5HVZ-S3a-H1-H6 (VHH)
VHH: QVQLVESGGGLVQPGGSLRLSCAASGGIYSPYSMHWFRQAPGKAREWVAGIVGGGGTTYSDSVKGRFTISRDNAKNTVYLQMNSLKPEDTAVYYCNANYQEYDEYDYWGQGTQVTVSS
notes: Form: Dimer
B13: PP905 MBP-5HVZ-S1a-C4-H6 (VHH)
VHH: QVQLVESGGGLVQPGGSLRLSCAASGSRDSINTAHWYRQAPGKAREWVASLDNSTTGSYADSVKGRFTISRDNAKNTVYLQMNSLKPEDTAVYYCAAVTGTPGGLGFYDYWGQGTQVTVSS
notes: Form: Dimer
B14: PP884 MBP-R1i-A11-H6 (VHH)
VHH: QVQLVESGGGLVQPGGSLRLSCAASGSILQINAIHWFRQAPGKQREEVAAITSGGSTGYADSVKGRFTISRDNAKNTVYLQMNSLKPEDTAVYYCAATSTRGGLDSDYWGQGTQVTVSS
notes: Form: Monomer
B15: PP887 MBP-S1b-E7-H6 (VHH)
VHH: QVQLVESGGGLVQPGGSLRLSCAASGGEFSDNGLHWFRQAPGKQREFVATASSDGSTQYRDSVKGRFTISRDNAKNTVYLQMNSLKPEDTAVYYCTALLMSSAGEYDVWGQGTQVTVSS
notes: Form: Monomer
B16: PP910 MBP-5HVZ-S2b-C10-H6 (VHH)
VHH: QVQLVESGGGLVQPGGSLRLSCAASGSAFSLNYMAWFRQAPGKQREGVAIIGSGGSSDYADSVKGRFTISRDNAKNTVYLQMNSLKPEDTAVYYCAAQPNGSPDDFDYWGQGTQVTVSS
notes: Form: Dimer
B17: PP1177 MPB-scTRP-PAPA-R2a-F3-H6 (VHH)
VHH: QVQLVESGGGLVQPGGSLRLSCAASGSITSINWMHWFRQAPGKDREGVASISQTGRGSYADSVKGRFTISRDNAKNTVYLQMNSLKPEDTAVYYCAAASRTGTPYNYWGQGTQVTVSS
notes: Form: Trimer
B18: PP888 MBP-S1b-E11-H6 (VHH)
VHH: B6 VHH
notes: Form: Monomer
B19: PP881 MBP-R5a-F2-H6 (VHH)
VHH: QVQLVESGGGLVQPGGSLRLSCAASGSISSIEAMSWFRQAPGKQREGVATMASGGDTSYADSVKGRFTISRDNAKNTVYLQMNSLKPEDTAVYYCAAQTYRPDTWGRYTFWGQGTQVTVSS
notes: Form: Monomer
B20: PP823 MBP-R5B-C3-H6 (VHH)
VHH: QVQLVESGGGLVQPGGSLRLSCAASGGISVANVMHWFRQAPGKEREGVAGLTSEGSRYYADSVKGRFTISRDNAKNTVYLQMNSLKPEDTAVYYCAAEPTGNTHEFEYWGQGTQVTVSS
B21: PP928 MBP-5HVZ-R1i-E7-H6 (VHH)
VHH: QVQLVESGGGLVQPGGSLRLSCAASGTEYDISAAHWYRQAPGKQREWVAGVTSDNSTFYADSVKGRFTISRDNAKNTVYLQMNSLKPEDTAVYYCTATVKTSQYRYWGQGTQVTVSS
B22: PP885 MBP-R5b-C5-H6 (VHH)
VHH: B8 VHH
notes: Form: Monomer
B23: PP922 MBP-R5a-F5-H6 (VHH)
VHH: QVQLVESGGGLVQPGGSLRLSCAASGYHASILAMHWVRQAPGKEREWVASMTWSDMTQYSDSVKGRFTISRDNAKNTVYLQMNSLKPEDTAVYYCAATYVTRDRPWTHWGQGTQVTVSS
notes: Form: Monomer
B24: PP883 MBP-R1e-D4-H6 (VHH)
VHH: B11 VHH
notes: Form: Monomer
B25: PP901 MBP-5HVZ-R1e-B2-H6 (VHH)
VHH: QVQLVESGGGLVQPGGSLRLSCAASGQITAENYMHWYRQAPGKQREWVAAITTGGSTLYADSVKGRFTISRDNAKNTVYLQMNSLKPEDTAVYYCNADRSYFPDYWGQGTQVTVSS
notes: Form: Dimer
B26: PP880 MBP-R5a-B5-H6 (VHH)
VHH: QVQLVESGGGLVQPGGSLRLSCAASGDDFIENAISWYRQAPGKGREWVAAVTLGGHSNYADSVKGRFTISRDNAKNTVYLQMNSLKPEDTAVYYCNYPVGIPAVAIDGRRSYGYWGQGTQVTVSS
notes: Form: Monomer
B27: PP1141 MBP-4B0F-PAPA-R5d-D4-H6 (VHH)
VHH: QVQLVESGGGLVQPGGSLRLSCAASGSDFTINAMHWFRQAPGKQREFVATITSTSSTAYRDSVKGRFTISRDNAKNTVYLQMNSLKPEDTAVYYCAAFAVRDADTAGWTARDYWGQGTQVTVSS
notes: Form: Heptamer
B28: PP886 MBP-S1a-C4-H6 (VHH)
VHH: B13 VHH
B29: PP806 MBP-R2B-E6-H6 (VHH)
VHH: QVQLVESGGGLVQPGGSLRLSCAASGGVTRGNAMAWYRQAPGKQREIVAAIDNGGSHAYGDSVKGRFTISRDNAKNTVYLQMNSLKPEDTAVYYCAVFPDHDSEQASIDRVYWGQGTQVTVSS
notes: Form: Monomer

Target: T1, SARS-CoV-2 Gamma Variant RBD (SARS-CoV-2 Gamma variant)
T1 construct: domain: RBD; coated on ELISA plates
Test: ELISA, RBD coated

| Binder | EC50 [µM] |
| --- | --- |
| B1 | 0.0571 |
| B2 | 0.0168 |
| B3 | 0.162 |
| B4 | 0.317 |
| B5 | 0.0429 |
| B6 | 0.12 |
| B7 | 0.0284 |
| B8 | 0.0347 |
| B9 | 0.0611 |
| B10 | 0.00612 |
| B11 | 0.451 |
| B12 | 0.0105 |

Target: T2, SARS-CoV-2 Beta Variant RBD (SARS-CoV-2 Beta variant)
T2 construct: domain: RBD; coated on ELISA plates
Test: ELISA, RBD coated

| Binder | EC50 [µM] |
| --- | --- |
| B1 | 0.121 |
| B2 | 0.0276 |
| B3 | 0.857 |
| B4 | 0.545 |
| B5 | 0.0663 |
| B6 | 0.263 |
| B7 | 0.0632 |
| B8 | 0.139 |
| B9 | 0.114 |
| B10 | 0.0189 |
| B12 | 0.0194 |

Target: T3, SARS-CoV-2 Alpha Variant RBD (SARS-CoV-2 Alpha variant)
T3 construct: domain: RBD; coated on ELISA plates
Test: ELISA, RBD coated

| Binder | EC50 [µM] |
| --- | --- |
| B1 | 0.00189 |
| B2 | 0.00588 |
| B3 | 0.00674 |
| B4 | 0.00219 |
| B5 | 0.00204 |
| B6 | 0.0037 |
| B7 | 0.00192 |
| B8 | 0.013 |
| B9 | 0.00133 |
| B10 | 0.00164 |
| B11 | 0.123 |
| B12 | 0.00294 |
| B13 | 0.447 |

Target: SARS-CoV-2 spike protein on pseudotyped lentivirus (Wuhan Reference Pseudovirus) (SARS-CoV-2, UniProt P0DTC2 14-1273)
Test: cell-based or functional assay

| Binder | infectivity % under 10 ug/mL VHH treatment [%] |
| --- | --- |
| B14 | 91.3 |
| B1 | 93.1 |
| B3 | 86.9 |
| B15 | 85.7 |
| B16 | 65.1 |
| B17 | 51.1 |
| B4 | 74.9 |
| B18 | 80 |
| B6 | 76.3 |
| B19 | 83.2 |
| B20 | 65.5 |
| B7 | 86.5 |
| B21 | 78.5 |
| B22 | 101 |
| B23 | 67.7 |
| B10 | 76.3 |
| B24 | 94.3 |
| B11 | 72.4 |
| B25 | 72.1 |
| B26 | 58 |
| B27 | 73.1 |
| B28 | 84.8 |
| B13 | 75.7 |
| B29 | 86.5 |
